# According to IntAct's records for PubMed 11591686:
# B1: RNA polymerase sigma factor RpoD (Pseudomonas aeruginosa (strain ATCC 15692 / PAO1 / 1C / PRS 101 / LMG 12228)), P26480 (parent)
# chain: MSGKAQQQSRLKELIARGREQGYLTYAEVNDHLPEDISDPEQVEDIIRMINDMGINVFETAPDADALLLAEADTDEAAAEEAAAALAAVESDIGRTTDPVRMYMREMGTVELLTREGEIEIAKRIEEGIREVMSAIAQFPGTVDSILADYNRIVAEGGRLSDVLSGYIDPDDGSLPAEEVEPVNLKDDSADSKEKDDEEEESDDSSDSDDEGDGGPDPEEARLRFTAVSEQLDKAKKALKKHGRGSKQATAELTGLAELFMPIKLVPKQFDALVARVRSALEGVRAQERAIMQLCVRDARMPRADFLRLFPNHETDEKWVDSVLKSKPKYAEAIERLRDDILRNQQKLAALESEVELTVAEIKEINRAMSIGEAKARRAKKEMVEANLRLVISIAKKYTNRGLQFLDLIQEGNIGLMKAVDKFEYRRGYKFSTYATWWIRQAITRSIADQARTIRIPVHMIETINKLNRISRQMLQEMGREPTPEELGERMDMPEDKIRKVLKIAKEPISMETPIGDDEDSHLGDFIEDSTMQSPIEMATSESLKESTREVLAGLTAREAKVLRMRFGIDMNTDHTLEEVGKQFDVTRERIRQIEAKALRKLRHPSRSEHLRSFLDE
# partner: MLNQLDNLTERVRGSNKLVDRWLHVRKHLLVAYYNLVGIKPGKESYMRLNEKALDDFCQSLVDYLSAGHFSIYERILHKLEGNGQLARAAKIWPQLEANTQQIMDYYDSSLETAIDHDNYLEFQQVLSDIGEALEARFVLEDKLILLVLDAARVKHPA
# B2: RNA polymerase sigma factor RpoD (Pseudomonas aeruginosa (strain ATCC 15692 / PAO1 / 1C / PRS 101 / LMG 12228)), P26480 (parent)
# chain: B1 chain
# partner: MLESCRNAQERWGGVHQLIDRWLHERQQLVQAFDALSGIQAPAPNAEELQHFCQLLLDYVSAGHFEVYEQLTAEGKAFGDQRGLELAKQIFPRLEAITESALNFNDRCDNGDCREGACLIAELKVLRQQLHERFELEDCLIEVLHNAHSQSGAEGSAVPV
# B3: RNA polymerase sigma factor RpoD (Pseudomonas aeruginosa (strain ATCC 15692 / PAO1 / 1C / PRS 101 / LMG 12228)), P26480 (parent)
# chain: B1 chain
# partner: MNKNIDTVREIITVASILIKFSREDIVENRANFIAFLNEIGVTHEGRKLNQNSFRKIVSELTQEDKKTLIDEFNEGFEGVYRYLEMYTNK
# Variants of: B1
# Settings: with rsd_ecoli rsd
row,Variant,effect of a mutation on the interaction
1,R600H,decreasing interaction

# Variants of: B2
# Settings: with algq_pseae algQ
row,Variant,effect of a mutation on the interaction
1,R600H,decreasing interaction

# Variants of: B3
# Settings: with asia_bpt4 asiA
row,Variant,effect of a mutation on the interaction
1,R600H,decreasing interaction
